# Laboratory results taken from a protein production outcome set (Wang et al. 2014).
# Assay: label from the status in PepcDB records
sequence,measurement,value
RNGLDLTTYEGQVEGVEIASDPNLKIVGMMTHFPNEGLDEIRRKVDRFKVETKWLMDSAGLKRKDITLHVANSYITLNLPEAHLDMVRPGGMLYGDYPATLPYERIVSFKTRIASLHFFPAGSTIGYGSTKVLERDSILANLPIGYSDGFARSLSNKADVLINGQRARVMGKASMNTTMVDVTDIIGVQANDEVVVFGRQGFEEITAEETEEKSGRILPEHYTIWGATNPRVYR,protein production,failed
GHPTEVLCLMNMVLPEELLDDEEYEEIVEDVRDECSKYGLVKSIEIPRPVDGVEVPGCGKIFVEFTSVFDCQKAMQGLTGRKFANRVVVTKYCDPDSYHRRDFW,protein production,not failed
MVDWSTLPKDLLDLISKSLESSFDLIQFRSVCSSWRSAAEPKSPLPTHHLPILPDNGGSLFPDSAVGFRLSQRSILLIKPHEPCIESDSFGWLIKVEEDLNVPRKVTLLDPLCDTRNSIPENFPRVLDMSKFKVRELGREFKLHYFNTVGDIVESLYLEKAVVKYLDCDGDYKFVLLTIHVSGKLAVFRSWDRAWTVINDMPSPYDDVMLFDGRFFAVDNNGRTVVVDYSSLKLTLVASPVFGGDKKFLIESCGEMLLVDMYLSLEAVEGDPGFVEEIFEHPAFYMNERTVKFKVYRFVEREESWVDVYDLEDKMLFLGDDSTFSASASDILPLCDGSSVFFNGNVFNGEDLGAMQDRDLGVFDFRSGKIELVQKLPEYAKLFWPPPPWITSHARAEDHIGETSSQS,protein production,failed
MATTSAQTSPTEFGAGLPEAEDHSESAEPQSVEAEVIDERYADVWEKIQHARTIDVHDDAEVRKQRNFFDDKQKFMTQVTQRAEPFLYYIVSQLEARNMPLELALLPIVESGYNPLAQANGPAGLWQMIPATGRNFGLTINSAYDGRKDALASTDAVLDYLQHLYNTLGNDWINAVAGYNSGELVIKAAIDRNKAKGKPTDFWSLNIPARQVQTVPKWLAFIQIIREPSHYNLKVMPIANRPFLERLPAPNGVEISQIANAAGLTKAEFKTYNPGYRQSVIPSKGKYQIALPIENIGHYQENQHKLYAQKRYDSQTYIVKSGDSLGTIAAKFDLSVKELKQANNLTSDRLKIGQELTLLTPMAANDNEPEPVKTKANTDKSSTKANASSTKATSSKSTDKPVAKAKTYKVKSGDSLDKIARKSKVKLADLMKWNQLNAKSIIKPGQELKISELEHHHHHH,protein production,failed
MFKIDLFSNKKAVEGFILFQLTIVMISILISYKMAYSMTHIIEQNIIFNIIFGIVGFAVVYFLHEFIHNIMFRVMSKGNKPTYRIKSGLITTHMPNVYFKKWQYMTIMLAPLVIITSVLLVIFSYFAYSSIIFIACFHIGYCVMDMYFLTGLLNKHVQLIEDTEEGIKFYTQAPAPAQEFRTELKS,protein production,failed
MNRINYIRQAEKKYHDLCYEQYKLFETGSWLYKPVKTVMDLMDHFEGQNNLQVLDLGSGVGRNSIPIAQQIQNTSGTVTCVDLLDSALTKLKTYTKEHGVFEVIKTEQAAIENYYIVPNTYDYIVAVSSLEHVQSEEDLTNVLHSIKEGTKTGGINCLIINSNIQEIDLHTKEELDALIEINLPTEDMIHLLKSIYKEWKEIKVEIKELVYDIVRDEKQIQLKTNAITFVVQK,protein production,failed
MRKVSISILFMLVSLTWGTTWLAMRIAVETIPPVFATGMRFMFAAPFLIIIAWLRKKTLLFPPGQRLFQFVICIFYFSIPFSLMIYGETYVNSGLAAIIFANMPVAVLIASVLFLNEKAKLMQIAGLTIAITALTGILLEEANTSTESHWQGITALISAVLIHAIIYTQCKKRSCTVSVITFNALPCLLAGLILSATGWFFERPQVSTFSVHSILATLYLGAFAGVFGILCYFALQQKANAFQASLVFLIFPLIAVSLEDYIYGYAISTHSMLLIIPLAIGIFLTLVARNIPVTSRCRDNSSQE,protein production,failed
MKLINTTWTHQELVNNQLDNTDAFLVETYSAGNTDVVFTQAPKHYELLISNKHRAVKDNELEVIREFFLKRKIDKDIVLMDKLRTVHTDKLIEISFPTTV,protein production,not failed
MLRGVAALVVYKGKPALAEEKGGRLELTLEGGARQRVRPKDVLFLHPGPASLDLKVPEGEEEAAWELLEGQTVSLRELAELVYGAYTPEAALGAYLLAQKGERFVLEGEGVRARTREELLALQEAERKRAERERAFQEALKRLKEGSPAPEDRPLLAEVEALARGERKESPVLRALNLPETPEAAHAFLLRLGLWQRENPHPRRLGLPLQPPDLPVPPLPEEDRVDLTHLPAFAIDDEGSQDPDDAVFAEKVEGGFRLFVHVADVAALVPPKSPLDEEALRRGANLYLPEGTVPMLPPAVTEALGLGLREVSPALTFELWVSEEGELLEERVYPSWVRVTRLTYREALGVEALRPLEALAEAFRAKRLAAGALEIALPEVKVRVEGEEVRITPLPPYPSRVWVREAMLLAGYAAAHLAVREGLPFPFATQEAPARRVEGEGLAAMWEQRKALKRAQLKAVPAPHKGLGLPLYAQVTSPLRRYLDLVAHQQLRAWLKGERPLSQAEVLERVGAAEAVADLVREAERKSKLHWTLLHLEAKGYEGPGVLVERRGGQGVFLLPELGLTAQVALPKALPLNAEARLRFLEADLPALEARFALV,protein production,failed
MAVTDVFARRATLRRSLRLLADFRYEQRDPARFYRTLAADTAAMIGDLWLATHSEPPVGRTLLDVGGGPGYFATAFSDAGVGYIGVEPDPDEMHAAGPAFTGRPGMFVRASGMALPLADDSVDICLSSNVAEHVPRPWQLGTEMLRVTKPGGLVVLSYTVWLGPFGGHEMGLSHYLGGARAAARYVRKHGHPAKNNYGSSLFAVSAAEGLRWAAGTGAALAVFPRYHPRWAWWLTSVPVLREFLVSNLVLVLTP,protein production,failed
HYSPFRSQPVDCVLWVKQELVAPNDYNPNNVAPPEKRLLQTSLEADGFTQPVVVIQQRPQAYTIVDGFHRHELACSKAALKKTLKGYLPVTCLTSEAASRDGLMAATIRHNRARGRHQ,protein production,failed
MRFLFLLFIVFPAIEIGIFLFLGNLIGILPTVLFMILTGIIGAAAAKKQGTEVYYKVQRDLQYGKMPGEAIADGLCIFIGGLLLMLPGFLSDLAGACLLIPFTRGWCKPILFKWLRGMSKNKRIIIK,protein production,failed
MFRVFILFGFGFYLMQLHISGDISKYINMKYAYLSFSAMIAAFLLAIIQLIMVFRDEDIGAKTEHMGHTHDGENTILKKIMVYGLLSYALIAGFLFPVATLDSTIVSAKGFHFPKNNAAGDDPYAQNQFLRPDTSGYFGETDYEKMMAKEKAEIIDQNPIKVNDSNYLMTMEILYNYPGEFTGKQIEFTGFVYNDEVTKDNNLFLFRFGIIHCVADSGVFGMLVQMPEKTNLKNDTWLTVKGTITQEYYSPFKMNIPSVQVESYKEVAKPKSVYVYRKY,protein production,failed
MNLHTKTWVQRLPVPIDVAWDFFSQPGNLARITPPEMMLKAEGGNAGTAIYEGMKLNFVLYPFMMIPVRWTTEIMKVSKPDFFEDRQLSGPYEQWYHRHLFRDIEGGTEMTDIVEYALPFDLFGEVVEALIVGPRLDEVFEYRRCRVAEILGLEHHHHHH,protein production,failed
MTEFKVVHTICPYCGTGCGIDLVVKDGKVVDSHPFKRHPVNEGKVCIKGNYCYEFVHSEDRLTKPLIKKNGEFIEATWDEALDLIAGKLKQYSPEEVAFFSCARGTNEESYALQKFARTVMKTNNVDHCARI,protein production,failed
MNLRLTASILGKLLMLFSFSFILPLIAAHVFEEPYHPFLIPAALSLLVGAVLGYGIKTESEFDSLRHKESFAIVALIWLFMSIFGSIPYIIFGISPVDAFFESMSGFTTTGASVLTPEELPKSLLLWRSLTQWIGGMGIIVLFLAIFPNVAKRSTVLFQAEYPGVSLSKLKPRIRDTALSLYKVYLLLTIAEVALLYALGLSLFDAINHTFTTLSTGGYSTHSESIAFFKDVRVEAVVAFFAFLGGANFALIYFLLSGKPVIFRNTEFRAYVCFLALASVVIAAVNLDRYSIFESLRYSIFQAVSIMTTTGFTTADFDAWSDSAKLILVVLMFIGGSSGSTGGGIKVIRIYLLIKYAVHQILRAAEPRTVRAVKFEGRAIKKEILDDIAAFFVLYILIFAVSSILVSLSGYDIVTSISATAATLGNVGPGLGLAGAAENYASFPSLTKILLAVNMWIGRLEIFTVVSLFIPTFWRERW,protein production,failed
MLAQIEQEHYSKLHEILRLCRANLKNYDESLIQRAFFMCYRAHEGEKRASGEPFFYHPVEVAKLLVTELPLDGVSVAAALLHDVIEDSGYTYEDISAELGAEVADIVEGLTKISEIMVNRETTEAEGFRKMLLSMVKDIRVILIKFCDRLHNMRTLDSLPEHRRLRMALETRDIYAPLAHRFGLGKMKVDLENLALKYIDPEMYDYLLKKVRLSRNERVAYLNKMIAPIKDDLEKQGFTVELQGRAKHLYSIYNKMRMKNKKFDDIHDLYGIRVIIDTEKISDCFAVYGYITQQFPPIPQHFKDYISIPKHNGYQSLHSAIIGPKGHVVELQIRTRRMHEFAELGVAAHWRYKEKISKDDAALDSFLKWARELIKDADSATAFMEGFKLNLYHDEIYVFTPKGDMKVLPAGATPIDFAYAIHSEIGNGCIGAKVNGKIVRLNTELRSGDRVEVITSKSQRPKADWLKIVVTHRAKLKIRAAINEERRQEIEKGRSIWEKMLSGSKKLFTENDAIRAIRQHGIKTPADLFNALAKQQISSEEVLERISHPHRPAETHESTVQARAPHKDFAEIAREVQERLGYQKDEVTIAGLNNISYSYAKCCNPVPGDDIIGFVTTGGTVKIHRKNCVNVTNENSVKSERIVSVAWNRKVDTDFLAGIRIVGEDKIGMTNQITGVISKFDTNIRTIVLNAKDGIFTCNLMIFVKNTDKLTTLMDKLRKVQGVFTVERLSN,protein production,failed
MNWKRLVQFYSVPPSQAALALGMIGLGQAWALYVPDIGTPIRPFLASFGALLLAPVLIKYATNPRLFMADIKHPLSGSLMAPMSMALLILTDYLASVAPLIAYPLWCLAVLLHFTMMVLFFGFQLMNFKMSNIVPSWFLYPVGLISSSLAGSQFGHNLFSETLAIMCIGIYFFMLPLVLYRLVFFGSLPRRARPTLAIMAAPVNLSLAAYLVNFPQPDPILTGALAGIAITMTLLIYLCYFRLLRLKFQPSIAAVTFPSVISAIAMHRLTSFFAQSHPQWHWLHDFGFLELSIATVLVVWVSAGYVKMYWPEIVRTPTKQA,protein production,failed
MIPFDYIVEKTVSTGVLVDVIGALLEVGNLTEDYRGLKLPFKIMDQYKEVLQCEAHNDQALEFQRFFQRLTGPQNVIALVSWRLSGIYKLKTLSNDPISKVIANPDIPEVEEIRVVVY,protein production,failed
MTLYKQLVAGMIAVFILLLISVFTIEFNTTRNSLEQQQRSEVNNTINTVGLALAPYLEKKDTIAVESVINALFDGSSYSIVRLIFLDDGTEILRSYPIQPNNVPAWFTQLNLFEPIHDRRVVTSGWMQLAEVEIVSHPGAAYAQLWKALIRLSIAFLAILVIGMFAVAFILKRSLRPLQLIVNKMEQVANNQFGEPLPRPNTRDLIYVVDGINKMSEQVEKAFKAQAKEAQQLRERAYLDPVSHLGNRAYYMSQLSGWLSESGIGGVAILQAEFIKELYEEKGYEAGDGMVRELADRLKNSITIKDISIARISTYEFGIIMPNMDETELKIVAESIITCVDDINPDPTGMAKANLSLGVVSNKRQSSTTTLLSLLDNALLKRNPILS,protein production,failed
MKINWAENLRQNVHQLAESLGNLFVESFHYLALFAIGAVTAWAAVMEFLQMIEVGHIKIDDILLLFIYLELGAMVGIYFKTNHMPVRFLIYVAITALTRLLISNVSHHNPPDLGIIYLCGGILLLAFAILVVRYASSQFPSVKIEHPQRKIGAGSGEHPEVEKGEL,protein production,failed
MKAVILAAGRGSRLQALTDERPKALVPFNGVPLLQRAIETLRRCDVSEVGIVAGYRSEMLAPFADTLFYNHRWHSSGIFSSLNCASDWLSAEPCLVSYGDIFYDSTLVSELINHPADIVLGYDPAAVRLWQQRFNDPLPDLENFRLVDGWVSAIGQTATSLEVIQGQYMGLFKVTPAGWQALKKQLQGLTPQARDQTDMTSLLGTLVSEGFPVAGVATHAPWGEIDCPSDVALYERIYPDRLEHHHHHH,protein production,failed
